Source: patent publication US20190194310A1 (NUMAB INNOVATION, published 2019)

B1: recombinant human TNFβ (ligand, UniProt P01374 35-205, looked up)
chain: LPGVGLTPSAAQTARQHPKMHLAHSTLKPAAHLIGDPSKQNSLLWRANTDRAFLQDGFSLSNNSLLVPTSGIYFVYSQVVFSGKAYSPKATSSPLYLAHEVQLFSSQYPFHVPLLSSQKMVYPGLQEPWLHSMYHGAAFQLTQGDQLSTHTDGIPHLVLSPSTVFFGAFAL
B2: humanized scFv 16-02-B03-sc02 (scFv)
scFv: MDIQMTQSPSSLSASVGDRVTITCQSSQSVYSSNLAWYQQKPGKAPKLLIYSASKLASGVPSRFSGSGSGTDFTLTISSLQPEDEATYYCQGTYYTSNWLNAFGGGTKLTVLGGGGGSGGGGSGGGGSGGGGSEVQLVESGGGLVQPGGSLRLSCAASGIDLSSYAMGWVRQAPGKGLEWIGTISVGGSTYYANWAEGRFTISRDNSKNTVYLQMNSLRAEDTAVYYCAGGDYINFFYFNIWGQGTLVTVSS
notes: CDR graft on a Vκ1/VH3 scaffold; also called 16-02-B03-sc02 (CDR); 16-02-B03-sc02-scFv

Legend:
[1] = target: B2; assay: competition ELISA: scFv coated, biotinylated TNFα 75 ng/mL, unlabeled TNFβ as competitor
Text: (§1) The quality of recombinant human TNFβ has been analyzed 1) for purity by SDS-page and HPLC analysis, and 2) for biological activity in the mouse L929 cytotoxicity assay, by the manufacturer of the protein.

[2] = target: B2; assay: competition ELISA: scFv coated, biotinylated TNFα, unlabeled TNFβ or TNFα as competitor
Text: as §1

recombinant human TNFα [3] = target: T1, recombinant human TNFα (human, UniProt P01375 77-233); assay: cell-based or functional assay
T1 sequence (P01375 77-233 limits assumed): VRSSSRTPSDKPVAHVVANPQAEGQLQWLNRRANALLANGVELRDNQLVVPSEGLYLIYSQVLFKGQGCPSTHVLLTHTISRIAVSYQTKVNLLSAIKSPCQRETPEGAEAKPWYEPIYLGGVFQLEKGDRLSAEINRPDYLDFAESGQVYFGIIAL

[4] = target: T2, recombinant Cynomolgus monkey TNFα (Cynomolgus monkey (Macaca fascicularis), UniProt P79337 77-233); assay: cell-based or functional assay
T2 sequence (P79337 77-233 limits assumed): as the sequence (P01375 77-233 limits assumed) above, with L37V, R44T, T72N, R138L counted along it

Rhesus monkey TNFα [5] = target: T3, Rhesus monkey TNFα (Rhesus monkey (Macaca mulatta), UniProt P48094 77-233); assay: cell-based or functional assay
T3 sequence (P48094 77-233 limits assumed): as the sequence (P01375 77-233 limits assumed) above, with R44T, T72N, R138L counted along it

recombinant human TNFα [6] = target: T1, recombinant human TNFα; assay: SPR (MASS-1); TNFα amine-coupled on chip, scFv injected 45-1.4 nM
Protocol: (§2) In a second step, Single Injection Cycle Kinetics (SiCK) were measured from a single injection cycle by simultaneously injecting six analyte samples at different concentrations into each of the eight parallel channels in the MASS-1 system. […] The apparent dissociation (kd) and association (kₐ) rate constants and the apparent dissociation equilibrium constant (KD) were calculated with the MASS-1 analysis software (Analyzer, Sierra Sensors) using one-to-one Langmuir binding model and quality of the fits was monitored based on Chi², which is a measure for the quality of the curve fitting. The smaller the value for the Chi² the more accurate is the fitting to the one-to-one Langmuir binding model. For affinity screenings, results were deemed valid if the Chi² was below 10 for the concentration analyzed. In cases where several scFv concentrations were analyzed, results were deemed valid if the average Chi² over all the concentrations tested was below 10.

[7] = target: T2, recombinant Cynomolgus monkey TNFα; assay: as above
Protocol: as §2

Rhesus monkey TNFα [8] = target: T3, Rhesus monkey TNFα; assay: as above
Protocol: as §2

recombinant human TNFβ = target: B1; assay: competition ELISA: scFv coated, biotinylated TNFα, unlabeled TNFβ as competitor
Protocol: To control precision of the response, the dose-response curves was analyzed in duplicate.

recombinant human TNFα [9] = target: T1, recombinant human TNFα; assay: inhibition ELISA; biotinylated TNFα 960 pM pre-incubated with scFv; competitor TNFRI-Fc coated
recombinant human TNFα [10] = target: T1, recombinant human TNFα; assay: inhibition ELISA; biotinylated TNFα 960 pM pre-incubated with scFv; competitor TNFRII-Fc coated
Protocol: For the second inhibition ELISA, the extracellular domain of TNFRII fused to the Fc region of human IgG (R&D Systems, Cat. No. 726-R2) was coated at a concentration of 2 μg/mL. All subsequent steps were identical for both assays.

Row | Binder | IC50 [1] [µg/mL] | Target selectivity, rel. IC50 of TNFβ vs TNFα [2] [fold] | Potency (L929 assay), rel. IC50 (IC50,Infliximab/IC50,scFv, ng/mL) (recombinant human TNFα [3]) | Species-specificity IC50 [ng/mL], human (L929 assay) (recombinant human TNFα [3]) [ng/mL] | Species-specificity IC50 [ng/mL], cyno (L929 assay) [4] [ng/mL] | Species-specificity IC50 [ng/mL], rhesus (L929 assay) (Rhesus monkey TNFα [5]) [ng/mL] | Kd (recombinant human TNFα [6]) [nM] | koff (recombinant human TNFα [6]) [s⁻¹] | kon (recombinant human TNFα [6]) [M⁻¹ s⁻¹] | Kd [7] [nM] | koff [7] [s⁻¹] | kon [7] [M⁻¹ s⁻¹] | Kd (Rhesus monkey TNFα [8]) [nM] | koff (Rhesus monkey TNFα [8]) [s⁻¹] | kon (Rhesus monkey TNFα [8]) [M⁻¹ s⁻¹] | binding result (recombinant human TNFβ) | IC50 (recombinant human TNFα [9]) [µg/mL] | IC50 (recombinant human TNFα [10]) [µg/mL]
1 | B1 | > 1250 | > 10000 | – | – | – | – | – | – | – | – | – | – | – | – | – | – | – | –
2 | B2 | – | – | 1.7 | 6.9 | 99.3 | 71.8 | 0.16 | 6.6e-05 | 410000 | 1.1 | 0.00021 | 180000 | 1.6 | 0.00022 | 130000 | no binding (tested: 1250 µg/mL) | 0.0737 | 0.0795
